Patent US20130136748A1 (Ablynx, published 2013)
Changes are numbered by the printed parent chain. Names may count otherwise. “And” between values parts separate entries of the source, which are not always exact repeats. Equal entries are not always repeated. One block for each binder: values may come before it.

Experiments:
[1] = target: T1, human HER3-Fc (R&D Systems, 348-RB) (human, UniProt P21860 20-643); test: alphascreen, competitor biotinylated 18G11
T1 construct: Bought; also called hHER3-Fc; Fc-HER3; Fc part of the bought chimera not given, not described

hHER3 full length [2] = target: T2, hHER3 full length (human, UniProt P21860 20-1342); test: cell-based or functional assay
[3] = target: T3, hHER3 ECD (human HER3 extracellular domain) (human, UniProt P21860 20-643); test: SPR off rate
T3 construct: also called recombinant HER3-ECD

[4] = target: T1, human HER3-Fc (R&D Systems, 348-RB); test: 18G11 competition alphascreen
[5] = target: T4, cHER3ECD (Maccaca fascicularis HER3 extracellular domain) (Macaca fascicularis, UniProt P21860 20-643 (human entry)); test: ELISA, coated cHER3-ECD
T4 construct: also called cyno HER3ECD; cyno HER3-ECD
T4 chain: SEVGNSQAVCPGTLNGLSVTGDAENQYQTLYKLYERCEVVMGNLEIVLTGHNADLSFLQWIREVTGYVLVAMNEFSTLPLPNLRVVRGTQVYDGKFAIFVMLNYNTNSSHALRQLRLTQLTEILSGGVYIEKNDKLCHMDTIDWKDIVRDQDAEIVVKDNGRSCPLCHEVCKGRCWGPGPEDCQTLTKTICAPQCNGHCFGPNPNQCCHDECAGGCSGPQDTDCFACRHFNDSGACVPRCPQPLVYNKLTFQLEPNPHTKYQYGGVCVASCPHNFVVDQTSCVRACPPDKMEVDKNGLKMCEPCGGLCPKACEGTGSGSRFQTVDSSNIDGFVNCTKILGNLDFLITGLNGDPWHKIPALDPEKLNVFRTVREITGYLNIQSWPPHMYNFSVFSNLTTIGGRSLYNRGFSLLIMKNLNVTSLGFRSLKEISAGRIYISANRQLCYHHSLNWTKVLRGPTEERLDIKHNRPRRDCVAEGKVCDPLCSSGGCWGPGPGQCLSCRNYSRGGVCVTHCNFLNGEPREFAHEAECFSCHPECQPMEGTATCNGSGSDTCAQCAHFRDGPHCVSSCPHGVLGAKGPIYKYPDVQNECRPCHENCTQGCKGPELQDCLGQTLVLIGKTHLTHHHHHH

human HER4 [6] = target: T5, human HER4 (human, UniProt Q15303 26-1308); test: FACS CHO-HER4, 2000 nM
T5 sequence (Q15303 26-1308 limits assumed): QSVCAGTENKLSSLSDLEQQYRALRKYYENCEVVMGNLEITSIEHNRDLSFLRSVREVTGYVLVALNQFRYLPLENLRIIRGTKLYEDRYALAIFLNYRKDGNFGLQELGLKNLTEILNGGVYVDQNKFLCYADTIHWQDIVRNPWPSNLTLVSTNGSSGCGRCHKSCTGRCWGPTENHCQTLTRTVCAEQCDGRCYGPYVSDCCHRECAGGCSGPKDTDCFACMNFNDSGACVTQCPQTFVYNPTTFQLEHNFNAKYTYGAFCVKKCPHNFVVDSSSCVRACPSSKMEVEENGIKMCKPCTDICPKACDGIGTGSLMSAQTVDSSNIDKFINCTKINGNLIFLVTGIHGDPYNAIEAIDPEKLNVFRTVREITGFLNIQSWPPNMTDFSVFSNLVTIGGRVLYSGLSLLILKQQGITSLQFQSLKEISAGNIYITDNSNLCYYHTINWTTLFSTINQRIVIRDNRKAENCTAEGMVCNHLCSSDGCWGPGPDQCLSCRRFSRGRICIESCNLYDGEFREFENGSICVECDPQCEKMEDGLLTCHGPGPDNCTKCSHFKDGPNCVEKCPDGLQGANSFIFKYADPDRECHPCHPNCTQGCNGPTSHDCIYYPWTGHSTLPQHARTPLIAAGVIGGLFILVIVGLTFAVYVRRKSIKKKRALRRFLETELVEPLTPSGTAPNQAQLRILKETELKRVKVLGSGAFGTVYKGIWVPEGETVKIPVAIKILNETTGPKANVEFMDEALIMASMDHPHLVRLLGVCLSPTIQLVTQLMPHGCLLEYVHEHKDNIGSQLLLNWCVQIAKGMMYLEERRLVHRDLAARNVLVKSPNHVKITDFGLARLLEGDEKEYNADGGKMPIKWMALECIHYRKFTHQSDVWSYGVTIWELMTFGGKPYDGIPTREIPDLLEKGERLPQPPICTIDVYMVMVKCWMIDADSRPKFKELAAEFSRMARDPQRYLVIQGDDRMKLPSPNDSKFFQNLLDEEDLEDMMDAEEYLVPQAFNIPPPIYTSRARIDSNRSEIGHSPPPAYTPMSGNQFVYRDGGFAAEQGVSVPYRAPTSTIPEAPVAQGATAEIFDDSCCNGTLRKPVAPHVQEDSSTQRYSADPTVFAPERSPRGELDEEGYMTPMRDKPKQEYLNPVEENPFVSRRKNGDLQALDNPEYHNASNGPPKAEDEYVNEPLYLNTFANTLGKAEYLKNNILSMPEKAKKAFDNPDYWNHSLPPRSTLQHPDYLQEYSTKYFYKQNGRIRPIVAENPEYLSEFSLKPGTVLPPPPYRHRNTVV

human HER4 [7] = target: T5, human HER4; test: FACS CHO-HER4, 222 nM
hHER3 full length [8] = target: T2, hHER3 full length; test: FACS, 400 nM, competitor 18E08-biotin
human HER1 [9] = target: T6, human HER1 (human, UniProt P00533 25-1210); test: FACS CHO-HER1, 2000 nM
T6 construct: also called EGFR; ErbB1

hHER3 full length [10] = target: T2, hHER3 full length; test: FACS, 400 nM, competitor 04C07-biotin
human HER2 [11] = target: T7, human HER2 (human, UniProt P04626 23-1255); test: FACS CHO-HER2, 222 nM
T7 construct: also called hHER2

hHER3 full length [12] = target: T2, hHER3 full length; test: FACS, 400 nM, competitor 23F05-biotin
hHER3 full length [13] = target: T2, hHER3 full length; test: FACS, 400 nM, competitor 17C08-biotin
hHER3 full length [14] = target: T2, hHER3 full length; test: cell-based or functional assay; remark: listed apart in the source
human HER2 [15] = target: T7, human HER2; test: FACS CHO-HER2, 2000 nM
human HER2 [16] = target: T7, human HER2; test: FACS CHO-HER2, 667 nM
hHER3 full length [17] = target: T2, hHER3 full length; test: FACS, 400 nM, competitor 04F10-biotin
human HER1 [18] = target: T6, human HER1; test: FACS CHO-HER1, 222 nM
human HER1 [19] = target: T6, human HER1; test: FACS CHO-HER1, 667 nM
[20] = target: T1, human HER3-Fc (R&D Systems, 348-RB); test: SPR, HER3-Fc captured by anti-Fc
human HER2 [21] = target: T7, human HER2; test: FACS, CHO-HER2
human HER1 [22] = target: T6, human HER1; test: FACS, CHO-HER1
hHER3 full length [23] = target: T2, hHER3 full length; test: FACS competition with HRG1-β1-EGF, CHO-HER3
human HER4 [24] = target: T5, human HER4; test: FACS, CHO-HER4
hHER3 full length [25] = target: T2, hHER3 full length; test: cell-based or functional assay; remark: listed apart in the source
[26] = target: T3, hHER3 ECD (human HER3 extracellular …); test: ELISA, coated hHER3-ECD
[27] = target: T8, Chicken Her3 (AA1-25 human, AA26-642 chicken) (chicken (human signal sequence)); test: FACS, HEK293 with chicken HER3
T8 construct: Transmembrane and extracellular regions only, on transiently transfected HEK293 cells; also called full length extracellular chicken HER3
T8 chain: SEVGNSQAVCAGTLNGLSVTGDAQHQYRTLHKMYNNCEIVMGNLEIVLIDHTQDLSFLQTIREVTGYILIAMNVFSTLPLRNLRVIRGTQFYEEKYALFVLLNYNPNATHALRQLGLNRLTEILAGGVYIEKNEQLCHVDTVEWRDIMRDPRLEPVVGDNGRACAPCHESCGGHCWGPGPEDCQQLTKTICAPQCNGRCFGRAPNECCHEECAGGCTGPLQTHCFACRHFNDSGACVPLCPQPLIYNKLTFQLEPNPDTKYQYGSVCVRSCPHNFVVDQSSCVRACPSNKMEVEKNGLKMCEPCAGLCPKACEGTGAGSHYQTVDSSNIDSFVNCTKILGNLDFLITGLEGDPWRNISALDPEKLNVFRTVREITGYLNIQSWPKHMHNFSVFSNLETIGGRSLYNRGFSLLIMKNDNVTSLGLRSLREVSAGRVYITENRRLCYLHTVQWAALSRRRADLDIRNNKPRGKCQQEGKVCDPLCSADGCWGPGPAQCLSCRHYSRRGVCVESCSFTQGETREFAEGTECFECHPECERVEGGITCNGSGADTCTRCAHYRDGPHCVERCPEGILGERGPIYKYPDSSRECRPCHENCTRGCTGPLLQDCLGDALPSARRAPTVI

hHER3 full length [28] = target: T2, hHER3 full length; test: FACS, 400 nM, competitor 21B02-biotin
human HER4 [29] = target: T5, human HER4; test: FACS CHO-HER4, 667 nM
hHER3 full length [30] = target: T2, hHER3 full length; test: cell-based or functional assay; remark: listed apart in the source
[31] = target: T1, human HER3-Fc (R&D Systems, 348-RB); test: HRG competition alphascreen
[32] = target: T1, human HER3-Fc (R&D Systems, 348-RB); test: HRG competition alphascreen; remark: listed apart in the source

B4: 23F05 (VHH)
VHH: EVQLVESGGGLVQAGGSLRLSCAASGFTFDGYAIGWFRQAPGKEREGVSCISGGDGRSYYADSVKGRFTVSSDNAKNTLYLEMNSLKPEDTAVYYCAVIWGPYCSDSYEYLYEYDYWGQGTQVTVSS
EC50 [5]: 0.44 nM
MCF (human HER4 [6]): 95
MCF (human HER4 [7]): 343
% competition (hHER3 full length [8]): 16%
MCF (human HER1 [9]): 67
% competition (hHER3 full length [10]): 6%
MCF (human HER2 [11]): 97
% competition (hHER3 full length [12]): 100%
% competition (hHER3 full length [13]): 8%
IC50, HRG1-β1 induced pHER3, MCF-7 (hHER3 full length [14]): 1.77e-08 M
IC50, HRG1-β1 induced pHER3, MDA-MB468 (hHER3 full length [14]): 2.41e-08 M
MCF (human HER2 [15]): 832
MCF (human HER2 [16]): 264
% competition (hHER3 full length [17]): 15%
MCF (human HER1 [18]): 153
MCF (human HER1 [19]): 67
Kd [20]: 0.99 nM
kon [20]: 3.1e+06 M⁻¹ s⁻¹
binding result (human HER2 [21]): no binding (tested: 2000 nM)
binding result (human HER1 [22]): no binding (tested: 2000 nM)
IC50 (hHER3 full length [23]): 9.44 nM
binding result (human HER4 [24]): no binding (tested: 2000 nM)
IC50, HRG1-β1 induced pAkt, MCF-7 (hHER3 full length [25]): 4.65e-08 M
inhibition of HRG1-β1 induced pERK1/2, MCF-7 (hHER3 full length [25]): < 50 % inhibition
EC50 [26]: 0.46 nM
binding result [27]: binds
% competition (hHER3 full length [28]): 100%
MCF (human HER4 [29]): 101

B5: 21B02 (VHH)
VHH: EVQLVESGGGLVQPGGSLRLSCAASGFTFDYYTIGWFRQAPGKEREGVSCISSRDGDSYYADSVKGRFTISRDNAKNTAYLQMNSLKPEDTAVYYCAASASDYGLGLELFHDEYNYWGQGTQVTVSS
EC50 [5]: 0.9 nM
MCF (human HER4 [6]): 273
MCF (human HER4 [7]): 91
% competition (hHER3 full length [8]): 20%
MCF (human HER1 [9]): 53
% competition (hHER3 full length [10]): 10%
MCF (human HER2 [11]): 1340
% competition (hHER3 full length [12]): 98%
% competition (hHER3 full length [13]): 17%
IC50, HRG1-β1 induced pHER3, MCF-7 (hHER3 full length [14]): 4.88e-08 M
IC50, HRG1-β1 induced pHER3, MDA-MB468 (hHER3 full length [14]): 9.99e-08 M
MCF (human HER2 [15]): 8570
MCF (human HER2 [16]): 3610
% competition (hHER3 full length [17]): 15%
MCF (human HER1 [18]): 64
MCF (human HER1 [19]): 64
Kd [20]: 1.22 nM
kon [20]: 2.2e+06 M⁻¹ s⁻¹
binding result (human HER1 [22]): no binding (tested: 2000 nM)
IC50 (hHER3 full length [23]): 13.3 nM
binding result (human HER4 [24]): no binding (tested: 2000 nM)
IC50, HRG1-β1 induced pAkt, MCF-7 (hHER3 full length [25]): 6.9e-08 M
inhibition of HRG1-β1 induced pERK1/2, MCF-7 (hHER3 full length [25]): < 50 % inhibition
EC50 [26]: 1.1 nM
binding result [27]: binds
% competition (hHER3 full length [28]): 100%
MCF (human HER4 [29]): 119

B6: 21F06 (VHH)
VHH: EVQLVESGGGLVQAGGSLRLSCAASGRTYYLNAMGWFRQGPGKDREFVAAIDWSDGNKDYADSVKGRFTISRDNAKNTVYLQMNSLKPEDTAVYYCAADTPPWGPMIYIESYDSWGQGTQVTVSS
notes: c-myc, His6-tagged form as expressed; also called 21F6; HER3MS21F06
EC50 [5]: 0.32 nM
MCF (human HER4 [6]): 263
MCF (human HER4 [7]): 149
MCF (human HER1 [9]): 74
IC50 pHER3, HRG1-β1 stimulated MCF7 (hHER3 full length [30]): 8.74e-09 M
% competition (hHER3 full length [10]): 11%
MCF (human HER2 [11]): 84
% competition (hHER3 full length [12]): 100%
% competition (hHER3 full length [13]): 9%
IC50, HRG1-β1 induced pHER3, MCF-7 (hHER3 full length [14]): 6.79e-09 M
IC50, HRG1-β1 induced pHER3, MDA-MB468 (hHER3 full length [14]): 7.94e-09 M
MCF (human HER2 [15]): 409
MCF (human HER2 [16]): 229
% competition (hHER3 full length [17]): 15%
MCF (human HER1 [18]): 107
MCF (human HER1 [19]): 110
Kd [20]: 0.12 nM
kon [20]: 1.8e+07 M⁻¹ s⁻¹
binding result (human HER2 [21]): no binding (tested: 2000 nM)
binding result (human HER1 [22]): no binding (tested: 2000 nM)
% inhibition [31]: 104%
IC50 [31]: 0.0135 nM
IC50 (hHER3 full length [23]): 10.1 nM
binding result (human HER4 [24]): no binding (tested: 2000 nM)
IC50, HRG1-β1 induced pAkt, MCF-7 (hHER3 full length [25]): 2.31e-08 M
IC50, HRG1-β1 induced pERK1/2, MCF-7 (hHER3 full length [25]): 1.11e-07 M
EC50 [26]: 0.3 nM
binding result [27]: binds
IC50 [32]: 0.25 nM
% competition (hHER3 full length [28]): 100%
MCF (human HER4 [29]): 225

The remaining lines, values ahead:

IC50 [1]: 3.2 nM
B1: HER3MS0050 (VHH)
VHH: EVQLVESGGGLVQPGGSLRLSCAASGTLFKINAMGWYRQAPGKRRELVALITSSDTTDYAESVEGRFTISRDNTWNAVYLQMNSLRPEDTAVYYCHSDHYSMGVPEKRVIMYGQGTLVTVSS
notes: Kabat numbering; also called 18G11 basic variant

IC50 pHER3 blocking, HRG stimulated MCF7 (hHER3 full length [2]): 1.79e-08 M and 2e-08 M
koff [3]: 0.00072 s⁻¹
IC50 [4]: 5.4 nM
B2: HER3MS00211 (VHH)
VHH: B1 VHH with E61D, E64K, T74S, A77T, M102L, M111L
notes: 18G11 second round variant without R44Q (selected)

koff [3]: 0.0012 s⁻¹
IC50 [4]: 14 nM
B3: HER3MS00125 (VHH)
VHH: B1 VHH with R44Q, S62D, E64K, T74S, A77T, M102L, M111L
notes: 18G11 second round variant with R44Q

IC50 pHER3, HRG1-β1 stimulated MCF7 (hHER3 full length [30]): 2.79e-09 M
IC50 [32]: 0.25 nM
B7: HER3MS00049 (VHH)
VHH: B6 VHH with A14P, G40A, D44E, A75S, K87R, Q120L
notes: 21F06 basic + G40A + D44E; also called HER3MS0049
